Measurements taken from US20200317768A1 (published 2020).

T1: cynomolgus monkey FcγRIIa2 extracellular domain with C-terminal His-tag (cynomolgus monkey)
T1 construct: Expressed in FreeStyle 293 cells and purified; also called cyno FcγRIIa2; cynoFcgRIIa2; not shown: C-terminal His-tag
T1 chain: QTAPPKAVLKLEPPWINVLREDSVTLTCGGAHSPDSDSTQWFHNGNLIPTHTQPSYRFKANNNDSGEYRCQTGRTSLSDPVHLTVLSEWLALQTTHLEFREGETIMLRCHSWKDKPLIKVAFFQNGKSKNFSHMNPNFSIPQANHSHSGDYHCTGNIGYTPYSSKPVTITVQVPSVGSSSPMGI

T2: cynomolgus monkey FcγRIIa3 extracellular domain with C-terminal His-tag (cynomolgus monkey)
T2 construct: Expressed in FreeStyle 293 cells and purified; also called cyno FcγRIIa3; cynoFcgRIIa3; not shown: C-terminal His-tag
T2 chain: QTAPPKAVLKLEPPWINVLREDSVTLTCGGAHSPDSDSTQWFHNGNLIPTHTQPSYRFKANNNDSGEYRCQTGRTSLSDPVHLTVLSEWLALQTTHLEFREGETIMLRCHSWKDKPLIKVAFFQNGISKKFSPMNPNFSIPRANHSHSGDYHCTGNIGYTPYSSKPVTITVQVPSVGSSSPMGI

T3: cynomolgus monkey FcγRIIIaS extracellular domain with C-terminal His-tag (cynomolgus monkey, UniProt Q8SPW2 21-206 at identity 1.00))
T3 construct: Expressed in FreeStyle 293 cells and purified; also called cyno FcγRIIIaS; cynoFcγRIIIaS; not shown: C-terminal His-tag
T3 chain: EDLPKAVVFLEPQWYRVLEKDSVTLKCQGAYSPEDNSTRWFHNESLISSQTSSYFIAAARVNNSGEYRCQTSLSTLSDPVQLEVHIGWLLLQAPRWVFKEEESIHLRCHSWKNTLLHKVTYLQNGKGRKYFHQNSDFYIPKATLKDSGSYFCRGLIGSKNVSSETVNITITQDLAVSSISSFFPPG

T4: human FcγRIIaR extracellular domain with C-terminal His-tag (human, UniProt P12318 34-217)
T4 construct: Expressed in FreeStyle 293 cells and purified; also called human FcγRIIa (type R); FcgRIIaR; not shown: C-terminal His-tag
T4 chain: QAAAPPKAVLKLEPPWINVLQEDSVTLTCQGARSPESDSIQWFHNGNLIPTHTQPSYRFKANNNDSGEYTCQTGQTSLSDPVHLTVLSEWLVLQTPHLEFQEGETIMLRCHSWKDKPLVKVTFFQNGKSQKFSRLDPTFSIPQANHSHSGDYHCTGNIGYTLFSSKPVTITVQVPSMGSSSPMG


Key:
Experiment in all cases: SPR (Biacore); KD of SG1 divided by KD of the variant for this FcgR;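 note: relative to parent M103205H795-SG1 carrying the SG1 human heavy chain constant region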
[1] = molecular target: T1, cynomolgus monkey FcγRIIa2 …
Description: (§1) The kinetic analysis of interactions between these antibodies and FcγR was carried out using BIACORE® T200 or BIACORE® 4000 (GE Healthcare). HBS-EP+ (GE Healthcare) was used as the running buffer, and the measurement temperature was set to 25° C. A chip produced by immobilizing Protein A. Protein A/G or mouse anti-human IgG kappa light chain (BD Biosciences) onto a Series S Sensor Chip CM4 or CM5 (GE Healthcare) by the amine-coupling method was used. […] After the measurement, the antibody captured on the chip was washed off by allowing reaction with 10 mM glycine-HCl, pH1.5 and 25 mM NaOH so that the chip was regenerated and used repeatedly. The sensorgrams obtained as measurement results were analyzed by the 1:1 Langmuir binding model using the BIACORE® Evaluation Software to calculate the binding rate constant ka (L/mol/s) and dissociation rate constant kd (l/s), and the dissociation constant KD (mol/L) was calculated from these values. […] Regarding such interactions, KD values were calculated using the following 1:1 binding model described in BIACORE® T100 Software Handbook BR1006-48 Edition AE.
(§2) The resultant variants were expressed using M103202L889-SK1 as light chain and their affinity to human and cynoFcγRs were evaluated (Table 20).

[2] = molecular target: T2, cynomolgus monkey FcγRIIa3 …
Description: as §1, §2

[3] = molecular target: T3, cynomolgus monkey FcγRIIIaS …
Description: as §1, §2

[4] = molecular target: T4, human FcγRIIaR extracellular domain …
Description: as §1, §2

[5] = molecular target: T5, human FcγRIIIaV extracellular domain with C-terminal His-tag (human, UniProt P08637 17-208)
T5 construct: Expressed in FreeStyle 293 cells and purified; also called FcgRIIIaV; not shown: C-terminal His-tag
T5 sequence (P08637 17-208 F176V): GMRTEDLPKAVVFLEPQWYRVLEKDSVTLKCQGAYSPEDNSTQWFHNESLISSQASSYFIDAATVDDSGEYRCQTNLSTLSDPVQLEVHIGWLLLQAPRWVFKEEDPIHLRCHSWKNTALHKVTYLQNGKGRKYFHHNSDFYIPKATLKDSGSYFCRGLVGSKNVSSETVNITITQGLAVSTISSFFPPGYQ
Description: as §1, §2

| Binder | KD fold (SG1 = 1) [1] [fold] | KD fold (SG1 = 1) [2] [fold] | KD fold (SG1 = 1) [3] [fold] | KD fold (SG1 = 1) [4] [fold] | KD fold (SG1 = 1) [5] [fold] |
| --- | --- | --- | --- | --- | --- |
| MS_M103205H795-SG1/M103202L889-SK1 (antibody, human IgG1, kappa, Anti-latent myostatin IgG; also called MS1032LO06-SG1) heavy: not shown light: DIVMTQSPATLSLSPGERATLSCTSSQSVYHANWLSWFQQKPGQPPKLLIYWASTLAYGVPSRFSGSGSGTDFTLTISSLQPEDAATYYCAGGYGGGRYAFGQGTKVEIKRTVAAPSVFIFPPSDEQLKSGTASVVCLLNNFYPREAKVQWKVDNALQSGNSQESVTEQDSKDSTYSLSSTLTLSKADYEKHKVYACEVTHQGLSSPVTKSFNRGEC | 1 | 1 | 1 | 1 | 1 |
| M103205H795-MY168 / M103202L889-SK1 (antibody, human IgG1, kappa, Position 396 variant derived from MY052, expressed with M103202L889-SK1 as light chain) heavy: QVTLKESGPVLVKPTETLTLTCTVSGIDLSHDDISWVRQAPGKGLEWVGIISYAGSTYYASWAKGRLTISKDTSKNQVVLTMTNMDPVDTATYYCARGVPAYSHGGDLWGQGTLVTVSSASTKGPSVFPLAPSSKSTSGGTAALGCLVKDYFPEPVTVSWNSGALTSGVHTFPAVLQSSGLYSLSSVVTVPSSSLGTQTYICNVNHKPSNTKVDKKVEPKSCDKTHTCPPCPAPELLNGPSVFLFPPKPKDTLMISRTPEVTCVVVDVSEEDPEVKFNWYVDGVEVHNAKTKPREEQYNSTYRVVSVLTVLHQDWLNGKEYKCKVSNKALPAPIEKTISKAKGQPREPQVYTLPPSREEMTKNQVSLTCLVKGFYPSDIAVEWESNGQPENNYKTTPAVLDSDGSFFLYSKLTVDKSRWQQGNVFSCSVMHEALHNHYTQKSLSLSP light: DIVMTQSPATLSLSPGERATLSCTSSQSVYHANWLSWFQQKPGQPPKLLIYWASTLAYGVPSRFSGSGSGTDFTLTISSLQPEDAATYYCAGGYGGGRYAFGQGTKVEIKRTVAAPSVFIFPPSDEQLKSGTASVVCLLNNFYPREAKVQWKVDNALQSGNSQESVTEQDSKDSTYSLSSTLTLSKADYEKHKVYACEVTHQGLSSPVTKSFNRGEC | 2 | 1.7 | 0.08 | 0.4 | 0.1 |
| M103205H795-MY052 / M103202L889-SK1 (antibody, human IgG1, kappa, Fc variant of M103205H795-SG1, expressed with M103202L889-SK1 as light chain; parent of the position 396 variants) heavy: QVTLKESGPVLVKPTETLTLTCTVSGIDLSHDDISWVRQAPGKGLEWVGIISYAGSTYYASWAKGRLTISKDTSKNQVVLTMTNMDPVDTATYYCARGVPAYSHGGDLWGQGTLVTVSSASTKGPSVFPLAPSSKSTSGGTAALGCLVKDYFPEPVTVSWNSGALTSGVHTFPAVLQSSGLYSLSSVVTVPSSSLGTQTYICNVNHKPSNTKVDKKVEPKSCDKTHTCPPCPAPELLNGPSVFLFPPKPKDTLMISRTPEVTCVVVDVSEEDPEVKFNWYVDGVEVHNAKTKPREEQYNSTYRVVSVLTVLHQDWLNGKEYKCKVSNKALPAPIEKTISKAKGQPREPQVYTLPPSREEMTKNQVSLTCLVKGFYPSDIAVEWESNGQPENNYKTTPMVLDSDGSFFLYSKLTVDKSRWQQGNVFSCSVMHEALHNHYTQKSLSLSP light: DIVMTQSPATLSLSPGERATLSCTSSQSVYHANWLSWFQQKPGQPPKLLIYWASTLAYGVPSRFSGSGSGTDFTLTISSLQPEDAATYYCAGGYGGGRYAFGQGTKVEIKRTVAAPSVFIFPPSDEQLKSGTASVVCLLNNFYPREAKVQWKVDNALQSGNSQESVTEQDSKDSTYSLSSTLTLSKADYEKHKVYACEVTHQGLSSPVTKSFNRGEC | 3.4 | 4.4 | 0.24 | 0.8 | 0.54 |
